Consider one substance from patent publication US20050031613A1.

For experiment [1], the target named is soluble hFcγRIIIa(V) (human) (UniProt P08637). Briefly: SPR, BIAcore 2000; end of the range tied to this antibody by Table 3 (0.48/0.28).
Experiment [2] has as its target soluble hFcγRIIIa(F) (human) (UniProt P08637). Briefly: SPR, BIAcore 2000; shFcγRIIIa captured by anti-His antibody on CM5 chip; KA from the equilibrium value of the binding.
The target in experiment [3] is soluble hFcγRIIIa(V) (human) (UniProt P08637). Briefly: SPR, BIAcore 2000; shFcγRIIIa captured by anti-His antibody on CM5 chip, antibody in flow (0.625 to 20 µg/ml).

Regarding Rituxan™ (antibody), the fold higher KA for shFcγRIIIa(V) than for shFcγRIIIa(F) in experiment [1] is 2 to 3 times. Further, in experiment [2], the Ka stood at 2.8e+06 M⁻¹. In experiment [3], this substance had a Ka of 4.8e+06 M⁻¹, a koff of 0.0071 s⁻¹ and a kon of 34000 M⁻¹ s⁻¹.
